Experimental data from publication PMC10901363 (Science Advances, 2024).
Where “and” joins values, the source holds several entries; their conditions need not be identical. Equal entries are not always repeated.

T1: PTPN21 FERM domain (FERM^PTPN21) (Homo sapiens, UniProt Q16825)
T1 construct: FERM domain, residues 21 to 319 (18 to 319 stated for the crystal); E. coli Rosetta (DE3), His-sumo tag removed; C-terminal EGFP fusion for MST; Flag-tagged for PIP-strips; monomer
T1 sequence (Q16825 21-319): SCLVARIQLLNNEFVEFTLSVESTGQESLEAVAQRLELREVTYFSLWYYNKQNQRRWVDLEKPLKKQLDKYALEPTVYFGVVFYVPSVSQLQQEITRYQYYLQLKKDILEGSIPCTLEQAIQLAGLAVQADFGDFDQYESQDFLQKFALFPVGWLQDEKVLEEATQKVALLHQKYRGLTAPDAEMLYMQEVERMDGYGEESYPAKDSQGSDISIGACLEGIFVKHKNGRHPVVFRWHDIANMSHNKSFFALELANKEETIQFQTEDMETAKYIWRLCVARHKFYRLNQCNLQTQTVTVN

T2: PTPN21 FERM-EGFP (UniProt Q16825 21-319)
T2 chain: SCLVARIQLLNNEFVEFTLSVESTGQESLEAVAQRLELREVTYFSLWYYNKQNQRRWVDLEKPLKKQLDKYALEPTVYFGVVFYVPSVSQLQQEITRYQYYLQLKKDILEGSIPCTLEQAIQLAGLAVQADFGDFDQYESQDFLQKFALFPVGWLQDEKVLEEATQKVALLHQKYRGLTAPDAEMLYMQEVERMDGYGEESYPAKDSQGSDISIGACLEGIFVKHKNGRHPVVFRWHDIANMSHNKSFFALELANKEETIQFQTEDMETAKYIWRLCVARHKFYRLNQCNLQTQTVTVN


Columns and labels:
[1] = biological target: T1, PTPN21 FERM domain (FERM^PTPN21); assay: microscale thermophoresis (FERM-EGFP); type: binding
mini PTPN21-EGFP = mini PTPN21-EGFP (UniProt Q16825); assay: MST
PTPN21 FERM-EGFP = biological target: T2, PTPN21 FERM-EGFP; assay: MST
[2] = substrate: Cc1cc(=O)oc2c(F)c(OP(=O)(O)O)c(F)cc12; assay: fluorescent phosphatase assay, Michaelis-Menten; type: biochemical, Homo sapiens; settings: 50 mM Hepes pH 7.0, 150 mM NaCl, 1 mM EDTA, 2 mM DTT, RT

Sequence of HPV18 E7 protein, full length (P06788 whole entry): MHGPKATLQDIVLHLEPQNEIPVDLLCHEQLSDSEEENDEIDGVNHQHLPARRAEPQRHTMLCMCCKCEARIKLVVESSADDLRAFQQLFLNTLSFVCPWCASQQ

| Molecule | Kd [1] [µM] | Kd (mini PTPN21-EGFP) [µM] | other results |
| --- | --- | --- | --- |
| HPV18 E7 CR3 domain (from UniProt P06788 54-105) (domain or fragment) |  | 0.049 |  |
| HPV18 E7 protein, full length (from UniProt P06788 1-105) (natural protein) |  | 0.2 |  |
| PTPN21 PTP domain (residues 872 to 1174) (domain or fragment) KEVATRATNDERCKILEQRLEQGMVFTEYERILKKRLVDGECSTARLPENAERNRFQDVLPYDDVRVELVPTKENNTGYINASHIKVSVSGIEWDYIATQGPLQNTCQDFWQMVWEQGIAIIAMVTAEEEGGREKSFRYWPRLGSRHNTVTYGRFKITTRFRTDSGCYATTGLKMKHLLTGQERTVWHLQYTDWPEHGCPEDLKGFLSYLEEIQSVRRHTNSTSDPQSPNPPLLVHCSAGVGRTGVVILSEIMIACLEHNEVLDIPRVLDMLRQQRMMLVQTLCQYTFVYRVLIQFLKSSRLI |  |  | Kd (PTPN21 FERM-EGFP): 2.31 µM and 3.48 µM and 1.61 µM; Km [2]: 28.6 µM; kcat [2]: 1.2 s⁻¹ |

Second part, led by results:

| Kd [1] [µM] | Molecule | Kd (mini PTPN21-EGFP) [µM] | other results |
| --- | --- | --- | --- |
| ~6.11 | O=P(O)(O)O[C@@H]1[C@H](O)[C@H](OP(=O)(O)O)[C@@H](O)[C@H](O)[C@H]1O [ins(1,3)P2] |  |  |
| ~1.32 | O=P(O)(O)O[C@@H]1[C@@H](O)[C@H](OP(=O)(O)O)[C@H](O)[C@H](O)[C@H]1O [ins(1,5)P2] |  |  |
